Experimental data from PMC4813160.

Biological target: Isocitrate dehydrogenase (IDH) from B. longum (BlIDH) (Bifidobacterium longum subsp. infantis ATCC 15697)
Assay: SEC; gel filtration on a 10/300 Superdex 200 column, 50 mM NaH2PO4 and 150 mM NaCl at pH 7.2; standards ovalbumin, conalbumin, aldolase, ferritin, thyroglobulin; single symmetrical peak, native mass 83 kDa against about 45 kDa for the subunit

“Isocitrate dehydrogenase (IDH) from B. longum (BlIDH) (enzyme)” showed a stoichiometry N of 2.
